Read-outs that look alike come from different tables or passages of the source.
B1: hum_LT-m58-4 (antibody, human IgG4, V domains shown)
VH: QVQLVQSGAEVKKPGASVKVSCKASGYTFIDHIMNWVRKAPGQGLEWMGRIYPVSGETNYNQKFMGRATFTVDRSTSTVYMELSSLRSEDTAVYYCGRGSYYWNAMDYWGQGTLVTVSS
VL: EIVMTQSPATLSVSPGERATLSCKASQSVDFDGESYMNWYQQKPGQPPRLLIYSASNLESGIPARFSGSGSGTEFTLTISSLQSEDFAVYYCQQSIEDPWTFGQGTKLEIK
notes: humanized from LT-m58
B2: hum_LT-m58-3 (antibody, human IgG4, V domains shown)
VH: QVQLVQSGAEVKKPGASVKVSCKASGYTFIDHIMNWVRKAPGQGLEWMGRIYPVSGETNYNQKFMGRATFTVDRSTSTVYMELSSLRSEDTAVYYCGRGSYYWNAMDYWGQGTLVTVSS
VL: DIVMTQSPDSLAVSLGERATINCKASQSVDFDGDSYMNWYQQKPGQPPKLLIYSASNLESGVPDRFSGSGSGTDFTLTISSLQAEDVAVYYCQQSIEDPWTFGQGTKVEIK
notes: humanized from LT-m58
B3: hum_LT-m37-3 (antibody, human IgG4, V domains shown)
VH: QVQLVQSGAEVKKPGASVKVSCKASGYSFTGYFINWVRQAPGQGLEWIGRIYPYNVNTFYNQNFKGRATMTADKSTSTAYMELSSLRSEDTAVYYCGRGTHYYGSSGAMDYWGQGTLVTVSS
VL: EIVLTQSPATLSVSPGERATLSCKASQNVGTAVAWYQQKPGQSPRLLIYSASNRYTGIPARFSGSGSGTEFTLTISSLQSEDFAVYFCQQYSSYPYTFGGGTKVEIK
notes: humanized from LT-m37
B4: hum_LT-m37-2 (antibody, human IgG4, V domains shown)
VH: QVQLVQSGAEVKKPGASVKVSCKASGYSFTGYFINWVRQAPGQGLEWIGRIYPYNVNTFYNQNFKGRATLTADKSTSTAYMELSSLRSEDTAVYYCGRGTHYYGSSGAMDYWGQGTLVTVSS
VL: EIVLTQSPATLSVSPGERATLSCKASQNVGTAVAWYQQKPGQSPRLLIYSASNRYTGIPARFSGSGSGTEFTLTISSLQSEDFAVYFCQQYSSYPYTFGGGTKVEIK
notes: humanized from LT-m37
B5: hum_LT-m37-5 (antibody, human IgG4, V domains shown)
VH: QVQLVQSGAEVKKPGASVKVSCKASGYSFTGYFINWVRQAPGQSLEWIGRIYPYNVNTFYNQNFKGRATLTADKSTSTAYMELSSLRSEDTAVYYCGRGTHYYGSSGAMDYWGQGTLVTVSS
VL: EIVMTQSPATLSVSPGERATLSCKASQNVGTAVAWYQQKPGQSPRLLIYSASNRYTGIPARFSGSGSGTEFTLTISSLQSEDFAVYFCQQYSSYPYTFGGGTKVEIK
notes: humanized from LT-m37
B6: hum_LT-m37-13 (antibody, human IgG4, V domains shown)
VH: QVQLVQSGAEVKKPGASVKVSCKASGYSFTGYFINWVRQAPGQGLEWIGRIYPYNVDTFYNQNFKGRVTMTADKSTSTAYMELSSLRSEDTAVYYCGRGTHYYGSSGAMDYWGQGTLVTVSS
VL: EIVLTQSPATLSVSPGERATLSCKASQNVGTAVAWYQQKPGQSPRLLIYSASNRYTGIPARFSGSGSGTEFTLTISSLQSEDFAVYFCQQYSSYPYTFGGGTKVEIK
notes: humanized from LT-m37
B7: hum_LT-m37-6 (antibody, human IgG4, V domains shown)
VH: QVQLVQSGAEVKKPGASVKVSCKASGYSFTGYFINWVRQAPGQGLEWIGRIYPYNVNTFYNQNFKGRATLTADKSTSTAYMELSSLRSEDTAVYYCGRGTHYYGSSGAMDYWGQGTLVTVSS
VL: EIVMTQSPATLSVSPGERATLSCKASQNVGTAVAWYQQKPGQSPRLLIYSASNRYTGIPARFSGSGSGTEFTLTISSLQSEDFAVYFCQQYSSYPYTFGGGTKVEIK
notes: humanized from LT-m37
B8: hum_LT-m37-1 (antibody, human IgG4, V domains shown)
VH: QVQLVQSGAEVKKPGASVKVSCKASGYSFTGYFINWVRQAPGQSLEWIGRIYPYNVNTFYNQNFKGRATLTADKSTSTAYMELSSLRSEDTAVYYCGRGTHYYGSSGAMDYWGQGTLVTVSS
VL: EIVLTQSPATLSVSPGERATLSCKASQNVGTAVAWYQQKPGQSPRLLIYSASNRYTGIPARFSGSGSGTEFTLTISSLQSEDFAVYFCQQYSSYPYTFGGGTKVEIK
notes: humanized from LT-m37
B9: hum_LT-m37-4 (antibody, human IgG4, V domains shown)
VH: QVQLVQSGAEVKKPGASVKVSCKASGYSFTGYFINWVRQAPGQGLEWIGRIYPYNVNTFYNQNFKGRVTMTADKSTSTAYMELSSLRSEDTAVYYCGRGTHYYGSSGAMDYWGQGTLVTVSS
VL: EIVLTQSPATLSVSPGERATLSCKASQNVGTAVAWYQQKPGQSPRLLIYSASNRYTGIPARFSGSGSGTEFTLTISSLQSEDFAVYFCQQYSSYPYTFGGGTKVEIK
notes: humanized from LT-m37
B10: LT-m85 (antibody, human IgG4, V domains shown)
VH: EVQLQQSGAELVKPGASVKMSCKASGYTFTSYNVHWVKQTPGQGLEWIGAVYPGNGDTSYNQKFKGKATLTADKSSNTAYMQLSSLTSEDSAVYYCARGSYYYTSSYFDHWGQGTTLTVSS
VL: DIVLTQSPASLAVSLGQRATISCKASQSVDFDGDSYMNWYQQKPGQPPKLLIYTASNLESGIPARFTGSGSGTDFTLNIHPVEEEDAATYYCQQSYEDPFTFGSGTKLEIK

How the values were obtained:
[1] = target: T1, hFc-human LIGHT (human); assay: competition ELISA, LTβR-His coated, hFc-huLIGHT added
T1 construct: also called hFc-huLIGHT

[2] = target: T2, His-human LIGHT (human); assay: ELISA, His-huLIGHT coated
T2 construct: also called His-huLIGHT; free LIGHT
T2 chain: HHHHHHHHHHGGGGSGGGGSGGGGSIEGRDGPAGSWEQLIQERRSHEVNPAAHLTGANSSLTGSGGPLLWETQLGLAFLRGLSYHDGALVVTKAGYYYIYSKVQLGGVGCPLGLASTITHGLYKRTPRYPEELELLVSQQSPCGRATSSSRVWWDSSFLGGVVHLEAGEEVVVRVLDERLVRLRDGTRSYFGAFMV

[3] = target: T3, His-cynomolgus monkey LIGHT (cynomolgus monkey); assay: ELISA, His-cynoLIGHT coated
T3 construct: also called His-cynoLIGHT
T3 chain: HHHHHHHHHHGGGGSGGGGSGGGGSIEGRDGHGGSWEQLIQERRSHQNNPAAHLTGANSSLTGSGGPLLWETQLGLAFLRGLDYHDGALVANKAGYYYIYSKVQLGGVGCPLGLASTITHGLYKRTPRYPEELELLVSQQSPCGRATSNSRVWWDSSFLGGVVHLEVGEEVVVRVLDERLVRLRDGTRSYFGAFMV

[4] = target: T4, LIGHT on the surface of HEK293-LIGHT stable cells (human, UniProt O43557 1-240); assay: cell-based or functional assay
[5] = target: T2, His-human LIGHT; assay: cell-based or functional assay
[6] = target: T2, His-human LIGHT; assay: ELISA, His-huLIGHT coated
[7] = target: T2, His-human LIGHT; assay: cell-based or functional assay
[8] = target: T1, hFc-human LIGHT; assay: competition ELISA, LTβR-His coated, hFc-huLIGHT added; remark: listed apart in the source
[9] = target: T2, His-human LIGHT; assay: SPR, Biacore 8K, antibody on CM5 chip, human LIGHT
[10] = target: T2, His-human LIGHT; assay: cell-based or functional assay
[11] = target: T1, hFc-human LIGHT; assay: competition ELISA, LTβR-His coated, hFc-huLIGHT added; remark: listed apart in the source
[12] = target: T2, His-human LIGHT; assay: cell-based or functional assay
[13] = target: T4, LIGHT on the surface of HEK293-LIGHT …; assay: cell-based or functional assay; remark: listed apart in the source
[14] = target: T2, His-human LIGHT; assay: ELISA, His-huLIGHT coated
[15] = target: T2, His-human LIGHT; assay: cell-based or functional assay
[16] = target: T2, His-human LIGHT; assay: SPR, Biacore 8K, antibody on CM5 chip
[17] = target: T3, His-cynomolgus monkey LIGHT; assay: SPR, Biacore 8K, antibody on CM5 chip
[18] = target: T5, His-mouse LIGHT (mouse); assay: ELISA, His-musLIGHT coated
T5 construct: also called His-musLIGHT
T5 chain: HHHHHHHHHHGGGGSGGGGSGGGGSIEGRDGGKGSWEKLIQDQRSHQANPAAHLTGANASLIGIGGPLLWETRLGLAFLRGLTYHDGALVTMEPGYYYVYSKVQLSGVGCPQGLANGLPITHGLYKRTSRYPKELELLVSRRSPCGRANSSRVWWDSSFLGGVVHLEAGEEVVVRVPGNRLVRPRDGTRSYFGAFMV

[19] = target: T2, His-human LIGHT; assay: ELISA, His-huLIGHT coated
[20] = target: T2, His-human LIGHT; assay: cell-based or functional assay

Row | Binder | EC50 [3] [nM] | IC50, LTβR NF-κB luciferase reporter, HEK293-LIGHT cells [4] [µg/mL] | IC50, LTβR NF-κB luciferase reporter, free LIGHT [5] [µg/mL] | EC50 [6] [µg/mL] | IC50, HVEM NF-κB luciferase reporter, free LIGHT [7] [µg/mL] | IC50 [8] [nM] | Kd [9] [nM] | koff [9] [s⁻¹] | kon [9] [M⁻¹ s⁻¹] | other results
1 | B1 | – | – | – | – | – | – | – | – | – | IC50 [1]: 0.208 nM; EC50 [2]: 0.00617 nM
2 | B2 | – | – | – | – | – | – | – | – | – | IC50 [1]: 0.169 nM; EC50 [2]: 0.0112 nM
3 | B3 | 0.0554 | 1.79 | 0.399 | 0.0875 | 0.0747 | – | – | – | – | –
4 | B4 | 0.0517 | 3.54 | 0.293 | 0.081 | 0.0918 | 0.0598 | – | – | – | –
5 | B5 | 0.0513 | 2.22 | 0.16 | 0.0837 | 0.062 | 0.0771 | 0.0575 | 6.34e-05 | 1.1e+06 | –
6 | B6 | 0.104 | – | – | – | – | – | – | – | – | IC50, LTβR NF-κB luciferase reporter, free LIGHT [10]: 0.227 nM; IC50 [11]: 0.867 nM; IC50, proliferation of CD3+ T cells stimulated by plate-bound anti-CD3 and His-huLIGHT (CellTiter Glo) [12]: 0.311 µg/mL; IC50, LTβR NF-κB luciferase reporter, HEK293-LIGHT cells [13]: 0.867 nM; EC50 [14]: 0.0422 nM; IC50, LIGHT induced MMP-9 production in BEAS-2B bronchial epithelial cells [15]: 0.358 µg/mL
7 | B7 | 0.0588 | 1.86 | 0.224 | 0.0939 | 0.0518 | 0.0753 | 0.0408 | 5.25e-05 | 1.29e+06 | –
8 | B8 | 0.0468 | 5.39 | 0.269 | 0.0662 | 0.118 | 0.0754 | – | – | – | –
9 | B9 | 0.0527 | 2.56 | 0.129 | 0.0859 | 0.0677 | 0.0748 | 0.241 | 7.1e-05 | 295000 | –
10 | B10 | – | – | – | – | – | – | – | – | – | Kd [16]: 0.0674 nM; koff [16]: 5.28e-05 s⁻¹; kon [16]: 783000 M⁻¹ s⁻¹; Kd [17]: 0.0601 nM; koff [17]: 6.72e-05 s⁻¹; kon [17]: 1.12e+06 M⁻¹ s⁻¹; binding result [18]: no binding; EC50 [19]: 0.0121 µg/mL; IC50, HVEM NF-κB luciferase reporter (293T-HVEM-NF-κB-Luc), free LIGHT [20]: 0.124 µg/mL
